Tests used:
[1] = molecular target: Wild type human PCSK9 (proprotein convertase subtilisin-like/kexin type 9) (human, UniProt Q8NBP7 31-692, 35S metabolic label in the immunoprecipitations); assay: cell-based or functional assay
R93R104R105H139 = molecular target: T1, R93R104R105H139 (35S metabolic label); assay: immunoprecipitation of 35S-labelled PCSK9 WT and alanine variants, autoradiography [CONT.) I]
T1 construct: also called 35S PCSK9 variant R93R104R105H139

[2] = molecular target: T2, PCSK9 mutant R96R97 (alanine substitutions) (human, UniProt Q8NBP7 31-692, 35S metabolic label); assay: as above
T2 construct: also called variant R96R97
T2 sequence (Q8NBP7 other isoform, or with tags, fused parts or gaps mutant limits assumed): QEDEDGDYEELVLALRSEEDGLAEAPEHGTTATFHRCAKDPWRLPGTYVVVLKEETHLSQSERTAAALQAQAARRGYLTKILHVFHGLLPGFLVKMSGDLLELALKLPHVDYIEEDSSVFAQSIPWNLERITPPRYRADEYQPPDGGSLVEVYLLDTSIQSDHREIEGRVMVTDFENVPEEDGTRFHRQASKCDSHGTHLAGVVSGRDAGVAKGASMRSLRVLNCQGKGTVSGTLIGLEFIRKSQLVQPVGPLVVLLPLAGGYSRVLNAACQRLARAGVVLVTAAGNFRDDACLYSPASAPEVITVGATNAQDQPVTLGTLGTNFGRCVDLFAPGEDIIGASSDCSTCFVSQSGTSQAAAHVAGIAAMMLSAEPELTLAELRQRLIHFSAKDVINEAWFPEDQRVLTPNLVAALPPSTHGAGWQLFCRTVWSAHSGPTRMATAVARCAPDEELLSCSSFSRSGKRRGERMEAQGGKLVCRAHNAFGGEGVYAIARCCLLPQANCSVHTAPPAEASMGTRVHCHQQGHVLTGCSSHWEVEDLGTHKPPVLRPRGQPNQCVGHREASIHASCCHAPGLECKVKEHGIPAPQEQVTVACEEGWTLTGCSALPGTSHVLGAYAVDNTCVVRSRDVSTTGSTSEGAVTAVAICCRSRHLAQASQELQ

[3] = molecular target: T3, PCSK9 mutant R104R105 (alanine substitutions) (human, UniProt Q8NBP7 31-692, 35S metabolic label); assay: as above
T3 construct: also called variant R104R105
T3 sequence (Q8NBP7 other isoform, or with tags, fused parts or gaps mutant limits assumed): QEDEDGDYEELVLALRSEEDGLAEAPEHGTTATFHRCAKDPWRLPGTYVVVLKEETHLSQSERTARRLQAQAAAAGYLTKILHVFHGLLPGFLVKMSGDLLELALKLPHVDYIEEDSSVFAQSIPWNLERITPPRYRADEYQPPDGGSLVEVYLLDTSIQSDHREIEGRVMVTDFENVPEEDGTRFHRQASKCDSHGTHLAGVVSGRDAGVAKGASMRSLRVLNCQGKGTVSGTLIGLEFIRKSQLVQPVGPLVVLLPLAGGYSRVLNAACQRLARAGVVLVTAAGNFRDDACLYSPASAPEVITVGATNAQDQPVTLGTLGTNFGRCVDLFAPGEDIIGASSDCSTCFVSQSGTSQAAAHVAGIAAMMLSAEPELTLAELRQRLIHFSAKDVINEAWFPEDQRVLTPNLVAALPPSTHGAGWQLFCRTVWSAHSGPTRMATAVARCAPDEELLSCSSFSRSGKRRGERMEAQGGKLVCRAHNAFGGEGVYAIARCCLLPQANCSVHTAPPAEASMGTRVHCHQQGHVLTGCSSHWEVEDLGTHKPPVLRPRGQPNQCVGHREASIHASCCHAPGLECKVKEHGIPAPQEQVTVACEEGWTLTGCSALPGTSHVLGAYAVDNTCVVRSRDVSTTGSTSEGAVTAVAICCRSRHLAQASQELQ

[4] = molecular target: T4, PCSK9 mutant R93R96R97R104R105H139 (all mutated to alanine) (human, UniProt Q8NBP7 31-692, 35S metabolic label); assay: immunoprecipitation of 35S-labelled PCSK9 mutant R93R96R97R104R105H139 (all to alanine) by mAb, autoradiography (16 h) [CONT.) H]
T4 construct: also called mutant PCSK9; 35S-mutant PCSK9
T4 sequence (Q8NBP7 other isoform, or with tags, fused parts or gaps mutant limits assumed): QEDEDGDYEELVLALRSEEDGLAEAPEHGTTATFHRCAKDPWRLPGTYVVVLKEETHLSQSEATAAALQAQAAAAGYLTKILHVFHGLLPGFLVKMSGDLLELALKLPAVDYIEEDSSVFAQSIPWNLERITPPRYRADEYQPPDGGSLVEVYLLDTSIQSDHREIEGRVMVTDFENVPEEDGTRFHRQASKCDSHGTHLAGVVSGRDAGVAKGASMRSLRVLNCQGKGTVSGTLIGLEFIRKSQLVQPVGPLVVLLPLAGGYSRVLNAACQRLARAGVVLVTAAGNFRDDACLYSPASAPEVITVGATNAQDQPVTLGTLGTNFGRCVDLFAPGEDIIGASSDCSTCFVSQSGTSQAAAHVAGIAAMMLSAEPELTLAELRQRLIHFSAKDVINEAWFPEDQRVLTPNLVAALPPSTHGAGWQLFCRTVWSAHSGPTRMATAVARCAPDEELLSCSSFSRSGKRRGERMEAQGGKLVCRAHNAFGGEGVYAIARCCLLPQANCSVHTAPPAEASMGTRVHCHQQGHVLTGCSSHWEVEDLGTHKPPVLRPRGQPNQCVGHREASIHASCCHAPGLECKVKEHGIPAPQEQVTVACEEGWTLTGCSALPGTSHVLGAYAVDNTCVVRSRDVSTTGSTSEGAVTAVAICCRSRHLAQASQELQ

Chain of Wild type human PCSK9 (proprotein convertase subtilisin-like/kexin type 9) (Q8NBP7 31-692 limits assumed): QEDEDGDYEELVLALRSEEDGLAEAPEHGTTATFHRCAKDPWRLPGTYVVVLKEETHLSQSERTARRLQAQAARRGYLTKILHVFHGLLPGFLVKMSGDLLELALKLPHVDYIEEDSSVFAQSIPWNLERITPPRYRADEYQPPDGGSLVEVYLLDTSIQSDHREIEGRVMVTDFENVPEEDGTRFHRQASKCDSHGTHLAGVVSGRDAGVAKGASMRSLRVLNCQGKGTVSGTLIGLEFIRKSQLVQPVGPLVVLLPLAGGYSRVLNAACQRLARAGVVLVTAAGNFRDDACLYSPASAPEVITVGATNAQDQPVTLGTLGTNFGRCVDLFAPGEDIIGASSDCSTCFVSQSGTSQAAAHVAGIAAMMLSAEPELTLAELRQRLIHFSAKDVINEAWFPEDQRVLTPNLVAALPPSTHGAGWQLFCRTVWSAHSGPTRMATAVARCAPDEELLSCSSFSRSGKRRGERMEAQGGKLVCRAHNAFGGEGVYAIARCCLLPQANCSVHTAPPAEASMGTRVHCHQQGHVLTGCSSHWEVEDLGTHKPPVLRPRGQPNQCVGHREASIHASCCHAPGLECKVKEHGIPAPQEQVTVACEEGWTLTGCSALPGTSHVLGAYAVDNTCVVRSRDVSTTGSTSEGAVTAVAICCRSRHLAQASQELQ
T1 sequence (PCSK9, as listed by the source limits assumed): as the sequence (Q8NBP7 31-692 limits assumed) above, with R63A, R74A, R75A, H109A counted along it

B1: mAb 5E11 (rat hybridoma BNT-5E11-D4/G1-E4) (antibody, V domains shown)
VH: EVQLQESGPGLVKPSQSLSLTCSVTGYTITSGYDWSWIRRFPGNTMEWMGDISYSGSTNYNPSLKSRVSITRDTSKNQFFLQLNSVTTGDTATYYCAKLPGWGQGTLVTVSS
VL: DVVLTQTPVFLSVTLGDQTSISCRSSQSLEYSDGYTYLEWYLQKPGQSPQLLIYEVSNRFSGVPDRFIGSGSGTDFTLKISRVEPEDLGVYYCFQGTHDPLTFGSGTKLEIK
notes: Rat monoclonal antibody, used as conditioned hybridoma medium
- cellular levels of LDLR in HepG2 cells (Western blot) [1]: ~2 fold
- binding result (R93R104R105H139): no binding
- binding result [2]: no binding
- binding result [3]: no binding
- binding result [4]: no binding (tested: 500 µl conditioned hybridoma medium)

B2: mAb 8H4 (rat hybridoma BNT-8H4-B8/C7-E11) (antibody, V domains shown)
VH: QVTLKESGPGILQPSQTLSLTCSFSGFSLSSSGICVSWIRQPSGKGLEWLATICWEDSKGYNPSLKNRLTISKDTSNNQALLRITSVDTADTAIYYCARVYYWYFDFWGPGTMVTVSS
VL: DIVMTQSPSLLSASVGDRVTLSCKGSQNINNYLAWYQQKLGEAPKLLIYNTNSLQTGIPSRFSGSGSGTDCTLTIRSLQPEDVATYFCYQYNNGNTFGGGTKLELK
notes: as for B1
- cellular levels of LDLR in HepG2 cells (Western blot) [1]: ~2 fold
- binding result [4]: no binding (tested: 500 µl conditioned hybridoma medium)

From US20220072032A1 (AARHUS UNIVERSITET, published 2022)
